Four molecules from paper PMC12012533, “Structural basis for immune cell binding of Fusobacterium nucleatum via the trimeric autotransporter adhesin CbpF” (Proceedings of the National Academy of Sciences of the …, 2025) can be followed below.

T1: CEACAM1-eGFP fusion protein on transfected HEK293T cells (human, UniProt P13688 35-526)
T1 construct: human CEACAM1 expressed from pcDNA3.1 as a GFP fusion; also called GFP-tagged CEACAM1; CEACAM1-GFP; source: HEK293T, transfected (pcDNA3.1, CMV promotor), on cells
T1 sequence (looked up): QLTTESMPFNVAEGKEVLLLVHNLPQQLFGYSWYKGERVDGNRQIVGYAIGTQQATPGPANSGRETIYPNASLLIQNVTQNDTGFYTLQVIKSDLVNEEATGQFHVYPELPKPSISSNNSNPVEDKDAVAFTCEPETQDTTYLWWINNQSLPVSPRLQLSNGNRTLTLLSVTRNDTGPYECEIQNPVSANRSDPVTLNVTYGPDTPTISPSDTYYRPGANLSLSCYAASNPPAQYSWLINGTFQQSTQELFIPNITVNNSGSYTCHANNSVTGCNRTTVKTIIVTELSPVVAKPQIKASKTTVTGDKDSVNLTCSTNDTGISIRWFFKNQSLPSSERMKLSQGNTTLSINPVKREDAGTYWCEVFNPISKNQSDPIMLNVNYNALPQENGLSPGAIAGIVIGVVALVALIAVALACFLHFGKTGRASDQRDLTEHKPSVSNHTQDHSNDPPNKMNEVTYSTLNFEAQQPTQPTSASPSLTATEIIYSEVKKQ

B1: CEACAM binding protein of Fusobacterium (CbpF) from F. nucleatum ATCC25586, wild type, detergent-solubilised (natural protein)
chain: SAAPVIKAGTATDSTEAGVDNVANGVKSSAFGYDNKAIEKESSAFGTGNRATGEFSSAFGFHNIASKIHSSAFGSNNAADGVNSSAFGFKNTVSGFNSSAFGSQYQVTGNFSGAFGMGEFNGQYQYKNEGNNSYMIGNKNKIASGSDDNFILGNNVHIGGGINNSVALGNNSTVSASNTVSVGSSTLKRKIVNVGDGAISANSSDAVTGRQLYSGNGIDTAAWQNKLNVTRKNDYKDANDIDVNKWKAKLGVGSGGGGGAPVDAYTKSEADNKFANKTDLNDYTKKDDYKDANGIDVDKWKAKLGTGAGTADIENLRNEVNEKIDDVKDEVRTVGSLSAALAGLHPMQYDPKAPVQVMAALGHYRDKQSVAVGASYYFNDRFMMSTGIALSGEKRTKTMANVGFTLKLGKGSGVTYDETPQYVVQNEVKRLTVENQELKERVRNLEEKLNMLLKNK
notes: Cloned in pASK-IBA2C behind an N-terminal E. coli OmpA signal peptide; Homotrimer; also called CbpF WT; CbpF wt; source: E. coli BL21 C43, extracted from membranes with lauroylsarcosine, purified (StrepTactin, SEC)
B2: CEACAM binding protein of Fusobacterium (CbpF), F. nucleatum ATCC25586, wild type (natural protein)
chain: B1 chain
modifications: AlexaFluor 647 NHS-ester conjugate (cell binding and competition assays only)
notes: CbpF (FN1499) of Fusobacterium nucleatum ATCC25586, codon-optimized gene; mature protein after signal peptide cleavage, residues S24-K479; numbers count on the precursor with its own signal peptide; Cloned in frame with an N-terminal E. coli OmpA signal peptide (export signal; In detergent for SPR and the SEC test, in DMPC/MSP1D1 nanodiscs for cryo-EM and the cell assays; also called CbpF wt; …)
B3: CEACAM1 extracellular domain (residues 35–428), C-terminal hexahistidine tag (domain or fragment, human, UniProt P13688 35-428, looked up)
chain: QLTTESMPFNVAEGKEVLLLVHNLPQQLFGYSWYKGERVDGNRQIVGYAIGTQQATPGPANSGRETIYPNASLLIQNVTQNDTGFYTLQVIKSDLVNEEATGQFHVYPELPKPSISSNNSNPVEDKDAVAFTCEPETQDTTYLWWINNQSLPVSPRLQLSNGNRTLTLLSVTRNDTGPYECEIQNPVSANRSDPVTLNVTYGPDTPTISPSDTYYRPGANLSLSCYAASNPPAQYSWLINGTFQQSTQELFIPNITVNNSGSYTCHANNSVTGCNRTTVKTIIVTELSPVVAKPQIKASKTTVTGDKDSVNLTCSTNDTGISIRWFFKNQSLPSSERMKLSQGNTTLSINPVKREDAGTYWCEVFNPISKNQSDPIMLNVNYNALPQENGLSPG
modifications: glycosylated (N-acetylglucosamines modelled on the IgV-like and IgC2-like A1 domains)
notes: human carcinoembryonic antigen-related cell adhesion molecule 1 (CEACAM1), extracellular domain, residues 35-428 of UniProt P13688; also called CEACAM1/ECD; CEACAM1-ECD; source: bought: ACRO Biosystems (Cat. No. CE1-H5220), produced in HEK293 cells; not shown: His6, C-terminal, kept
B4: CEACAM1 extracellular domain (residues 35-428), C-terminal hexahistidine tag (domain or fragment, human, UniProt P13688 35-428, looked up)
chain: B3 chain
modifications: glycosylated
notes: carcinoembryonic antigen-related cell adhesion molecule 1 (CEACAM1), human, extracellular domain, residues 35-428; also called CEACAM1-ECD; CEACAM1/ECD; source: bought: ACRO Biosystems, Cat. No. CE1-H5220, produced in HEK293 cells; not shown: His6, C-terminal, kept

Data set [1] concerns the molecule itself. Kind of data set: SDS-PAGE (SDS- and heat-resistant oligomer); elution fractions of membrane-extracted CbpF from StrepTactin resin; monomer at 50 kDa, trimer at 150 kDa.
Data set [2] concerns the molecule itself. Kind of data set: SDS-PAGE (SDS- and heat-resistant oligomer); purified CbpF, in detergent and after reconstitution in DMPC/MSP1D1 nanodiscs; band above 150 kDa.
For data set [3], the target named is B3. As to the kind of experiment: cryo-EM structure; 4.6 µM nanodisc-embedded CbpF (trimer) incubated with 14 µM CEACAM1/ECD for 60 min at 23 °C, excess CEACAM1 removed by SEC; single particle analysis, C3 symmetry. Conditions: both partners purified. For orientation: Size exclusion chromatography separates by hydrodynamic size, large species first.
Data set [4] concerns the target T1, CEACAM1-eGFP fusion protein on …. Kind of data set: confocal fluorescence microscopy of labelled protein on cells; 1 µM AlexaFluor 647-labelled CbpF nanodiscs on HEK293T cells transfected with CEACAM1-GFP, 2 h at 37 °C, compared with empty nanodiscs; integrated fluorescence colocalizing with GFP or with the membrane stain. Conditions: one partner purified.
Data set [5] addresses B2. Kind of data set: SPR; Biacore T200; CEACAM1-ECD-His6 captured on an anti-His antibody on a CM5 chip (~35 RU); CbpF injected, 11.5 to 1,480 nM (WT) or 15.6 to 1,000 nM (WT and variants); 25 mM MOPS-NaOH, 150 mM NaCl, 1 % P8POE, pH 7.0, 25 °C; global fit with a 1:1 Langmuir or a heterogeneous ligand model. Conditions: both partners purified. (In general: Surface plasmon resonance follows binding to a sensor surface in real time, without labels.)

Data set [6] addresses B2. Kind of data set: SPR; same sensorgrams as a4, steady-state signals of the binding curves evaluated. Conditions: both partners purified.
Data set [7] has as its target B2. As to the kind of experiment: competition of cell binding (confocal fluorescence microscopy); labelled CbpF nanodiscs preincubated with 1 or 2 µM purified CEACAM1-ECD for 30 min at 25 °C before incubation with cells. Conditions: both partners purified.
The target of data set [8] is B1. Kind of data set: SPR; CEACAM1-ECD-His6 captured (about 35 RU) on anti-His antibody on a CM5 chip, Biacore T200; CbpF injected at 11.5-1480 nM (WT) or 15.6-1000 nM (WT and variants); 25 mM MOPS-NaOH, 150 mM NaCl, 1 % P8POE, pH 7.0, 25 °C; 240 s association, 600 s dissociation; 1:1 Langmuir global fit. Conditions: both partners purified.

Several values for one entry are separate records, joined by “and”; a condition that tells them apart may be missing. Identical values can stand only once.

The term stoichiometry N denotes the number of molecules, sites or subunits per partner or assembly. Usually Kd stands for the equilibrium constant for the complex coming apart. Lower therefore signals tighter binding. In general, koff refers to a measure of how fast the partners let go of each other. One may read the kon as the second-order rate constant of association. Read a high kon as fast association.

B1: the “stoichiometry N” value in data set [1] came to 3.

Turning to B2, the “stoichiometry N” value in data set [2] turned out to be 3. Also, in data set [3], the “stoichiometry N” value turned out to be 1 CEACAM1 per CbpF protomer. Moreover, in data set [4], the “fold increase of the mean fluorescence signal over empty nanodiscs (colocalizing with cells)” value is 9.3 fold and the “fold increase of the mean fluorescence signal over nanodiscs without CbpF (colocalizing with CEACAM1-GFP)” value was ~460 fold.

In data set [5], B3 registered a Kd of 6.2 nM, a koff of 0.00051 s⁻¹ and a kon of 81300 M⁻¹ s⁻¹. Besides, the affinity in data set [6], expressed as Kd, was 75 ± 14 nM. Moreover, the “fold decrease of the CbpF signal on cells after preincubation” value in data set [7] is ~11 fold.

Take B4: in data set [8], the Kd was 6.16 nM and 6.29 nM; the koff was 0.000501 s⁻¹ and 0.000844 s⁻¹; the kon was determined as 134000 M⁻¹ s⁻¹.
